Data taken from PMC8354229.
Where “and” joins values, the source holds several entries; their conditions need not be identical. Equal entries are not always repeated.

T1: HIV-1 Vpr (WT), expressed from pNL4-3unc (HIV-1 (NL4-3-based proviral plasmid)), P12520
T1 chain: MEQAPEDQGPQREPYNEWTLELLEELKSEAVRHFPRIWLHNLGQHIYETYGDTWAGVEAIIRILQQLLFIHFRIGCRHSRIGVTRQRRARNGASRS

B1: HIV-1 Vpr (WT), expressed from pNL4-3unc, P12520 1-96 (natural protein)
chain: T1 chain

How the values were obtained:
[1] = biological target: HIV-1 Vpr (WT), expressed from pNL4-3unc (UniProt P12520); assay: immunoblot of virions (Vpr incorporation, Vpr/CA ratio, LI-COR quantification); settings: equivalent RT units of virus concentrated by ultracentrifugation through a sucrose cushion; parent: est. 100; read off a plot
[2] = biological target: HIV-1 Gag p6 Mutant 11 (LXXL to alanines) (HIV-1 (NL4-3-based proviral plasmid)) (UniProt P12493); assay: virion incorporation (virions pelleted through sucrose, immunoblot); virus from 293T cells transfected with pNL4-3unc proviral plasmids (Gag and Vpr from the same construct); concentrated through a 20% (w/v) sucrose cushion, 2 h, 10,000 g, 4°C; equivalent RT units on SDS-PAGE; anti-Vpr and anti-CA immunoblot; Vpr/CA ratio relative to WT virions (LI-COR)
[3] = biological target: HIV-1 Gag with WT p6, expressed from pNL4-3unc (HIV-1 (NL4-3-based proviral plasmid)) (UniProt P12493); assay: as above
[4] = biological target: HIV-1 Gag p6 Mutant 4 (FRFG to alanines) (HIV-1 (NL4-3-based proviral plasmid)) (UniProt P12493); assay: as above
[5] = biological target: HIV-1 Gag p6 Mutant 12 (alanine substitutions in the LXXLF motif) (HIV-1 (NL4-3-based proviral plasmid)) (UniProt P12493); assay: as above
[6] = biological target: T1, HIV-1 Vpr (WT), expressed from …; assay: cross-linking; virions pelleted through sucrose, 1% formaldehyde in PBS 20 min at room temperature, quenched with 250 mM Tris-HCl pH 7.5, pelleted again through sucrose, SDS-PAGE and anti-Vpr immunoblot; settings: remark: other sources report otherwise

Molecule | percent of parent [1] [% WT] | also measured
HIV-1 Gag with WT p6, expressed from pNL4-3unc (from UniProt P12493) P11A; E12A; E13A; S14A | 62 | –
HIV-1 Gag with WT p6, expressed from pNL4-3unc (from UniProt P12493) R4A; P5A; E6A | 85 | –
HIV-1 Gag with WT p6, expressed from pNL4-3unc (from UniProt P12493) I31A; D32A; K33A | 90 | –
HIV-1 Gag with WT p6, expressed from pNL4-3unc (from UniProt P12493) T23A; P24A; S25A; Q26A | 59 | –
HIV-1 Vpr L67A (from UniProt P12520 1-96) (natural protein) | – | fold lower Vpr packaging than the same p6 mutant with WT Vpr [2]: > 10 fold; fold reduction of Vpr incorporation against WT Vpr [3]: 2 fold; fold lower Vpr packaging than the same p6 mutant with WT Vpr [4]: > 10 fold
HIV-1 Gag with WT p6, expressed from pNL4-3unc (from UniProt P12493) E19A; E20A; T21A; T22A | 52 | –
HIV-1 Vpr (WT), expressed from pNL4-3unc (from UniProt P12520 1-96) (natural protein) | – | Vpr incorporated, % of WT virions (Vpr/CA ratio) [2]: < 30%; Vpr incorporated, % of WT virions (Vpr/CA ratio) [5]: < 30%; Vpr incorporated, % of WT virions (Vpr/CA ratio) [4]: < 30%
HIV-1 Gag with WT p6, expressed from pNL4-3unc (from UniProt P12493) P49A; S50A; S51A; Q52A | 76 | –
HIV-1 Gag with WT p6, expressed from pNL4-3unc (from UniProt P12493) P37A; L38A; S40A | 62 | –
HIV-1 Gag with WT p6, expressed from pNL4-3unc (from UniProt P12493) E34A; L35A; Y36A | 73 | –
HIV-1 Gag with WT p6, expressed from pNL4-3unc (from UniProt P12493) K27A; Q28A; E29A; P30A | 93 | –
B1 | – | stoichiometry N [6]: 2 and 3
